How the values were obtained:
[1] = tested on: tTALE-eGFP (truncated TALE, 7-mer TGTCTGT repeat domain, fused to eGFP) (artificial construct (from TALEN plasmid RHD_Exon4_TALEN_L)); experiment: FRET; details: FRET: TE pH 8.0, 100 nM dsDNA, 10-100 nM tTALE-eGFP for Kd; NaCl series 0-200 mM at 30 nM protein; excitation 488 nm, emission 631 nm; temperature not stated
[2] = tested on: tTALE-eGFP (truncated TALE, 7-mer TGTCTGT repeat domain, fused to eGFP) (artificial construct (from TALEN plasmid RHD_Exon4_TALEN_L)); experiment: single-molecule fluorescence (surface-immobilized DNA in flow cell); details: FRET: TE pH 8.0, 100 nM dsDNA, 10-100 nM tTALE-eGFP for Kd; NaCl series 0-200 mM at 30 nM protein; excitation 488 nm, emission 631 nm; temperature not stated

Substance	Kd [1] [nM]	K half [2] [nM]
TGTCTGTATG (double strand) [target DNA]	26.7	
lambda DNA		22

— article PMC6868158
